# Assay results from the nanobody polyreactivity screen of Harvey et al. (2022).
# Assay: yeast display, Sf9 membrane polyspecificity reagent, FACS + sequencing; frameworks hold sequencing errors
# Summary of the method: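 A nanobody's polyreactivity label depends on the gate it was sorted from. Yeast display cells were stained with 10% biotinylated, detergent-solubilized Sf9 membrane reagent for 1 hour at 4 °C, enriched on streptavidin microbeads and sorted by FACS. The low and high (top ~1%) gates were set on anti-HA fluorescence for expression and streptavidin fluorescence for reagent binding.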
row,Sequence,polyreactivity (PSR sort gate)
1,QVQLVESGGGLVQAGGSLRLSCSASGIIMDPNAMGWYRQAPGKERELVAGITRSGVSTYYSDSVKGRFTISRDNAKNTVYLLMNSLKPEDTAVYYCAKDRIYGSKGEDEDYWGQGSQVTVSS,low polyreactivity
2,QVQLVESGGGLVQAGGSLRLSCAASGSIFYVYAMVWYRQAPGKEREFVASIRTSGSSTYADSVKGRFTISRDNAKNTVYLQMNSLKPEDTAVYYCAAGSITVFWKRTGYRWRGYDYWGQGTQVTVSS,low polyreactivity
3,QVQLVESGGGLVQAGGSLRLSCAASGRIFYVYAMGWSRQAPGKERELVAAITSGGRTYYADSVKGRFTISRDNAKNTVYLQMNSLKPEDTAVYYCAARASSYNYWGQGTQVTVSS,high polyreactivity
4,QDQLEESGGGLVHAGGSLRLSCAASGRIFLTNAMGWYRQAPGKERELVAAITSGGSTYYADSVKGRFTISRDNEMNTVYLQMNSLNPEDTAVYYCNAYVTSGYANEYYWGQGSQVTVSS,low polyreactivity
5,QVQLVESVGGLVQAGGSLRLSCAASGSTFSSNAMGWYRQAPGKERELVAAINRTGNTYYADSVKGRFTISRDNAKNTVYLQMNSLKPEDTAVYYCNTDLNLYRGGGYWGQGTQVTVSS,low polyreactivity
6,QVQLVESGGGLVQAGGSLRLSCAASGLTFSRNAMGWYRQAPGKERELFATINSGGRTNYADSVKGRFTISRDNAKNTVYLQMNSQKPEDTAVYYCAVRTYSNYRAIVPYCRYDYWGQGTQVTVSS,high polyreactivity
7,QVQLVESGGGLVQAGGSLRLSCAASGSTFLVYAMGWYRQAPGKERELVAAINFSGSSTYYADSVKGRFTISRDNAENTVYLQMNSLKPEDTAVYYCAADSLELWYGYFWVKVPYDYWGQGTQVTVSS,low polyreactivity
8,QVKLVESGGGLVQAGGSLRLSCAASGRTFGVYAMGWYRQAPGKEREFVATITSRGGRTYYADSVKGRFTISRDNAKNTVYLQMNSLKPEDTAVYYCAVGRGSLRGRTDGGYWGQGTQVTVSS,high polyreactivity
9,QVQLVESGGGLVQAGGSLRLSCAASGFIFGVYDMGWSRQAPGKERELVAAIDSVGSTYYADSVKGRFTISRDNAYNTVYLQMNSLKPEDTAVYYCAKDGSYQAYGYWGQGTQVTVSS,low polyreactivity
10,QVQLVESRGGLVQAGGSLRLSCAASGSTFLNYAMGWYRQAPGKERELVAAISGSTTRTYYAESVKGRFTISRDNAKNTVYLQMNSLKPEDTAVYYCAATRGRGGRDDYWGQGSQVTVSS,high polyreactivity
11,QVQLVESGGGLVQAGGSLRLSCAASGSTFGTYAMGWYRQAPGKERELVATISIGGITYYADSVKGRFTISRDNAKYTVYLQMNSLKPEDTAVYYCAKDVTDPTSRSDPSGDDYWGQGTQVTVSS,low polyreactivity
12,QVQLVESGGGLVQAGGSLRLSCAASGLTFKWYAMGWYRPAPGKERELVAAISRDGSTYYADSVKGRFTISRDNAKNTVYLQMNSLKPEDTAVYNCAADIWPSSLLADEYDYWGQGTQVTVSS,high polyreactivity
13,QVQRVESGGGLVQAGGSLRLSCPASGRIFRYYAMGWYRPAPGKEREMVARITRNGGTTYYADSVKGRFTISRDNAKNTVYLQMNSLKPEDTAVYYCAATYSVPYYGAWPEYDYWGQGTQVTVSS,high polyreactivity
14,QVQVVESGGGLVQAGGSLRLSCAASGRIFNYYAMGWYRQAPRKERELVAVISRTGVRTHYADSVKGRFTISRDNAKNTVYLQMNCLKPEDTAVYYCNADSYVFRYDYWGQGTQVTVSS,high polyreactivity
15,QVQLVESGGGLVQAGGSLRLSCAASGFIFVGNAMGWYRQAHGKERELVAAISRRGSRTFYADSVKARFTISRDNAKNTVYLQMNSLKPEETAVYYCAAEGYYVTPFDYWGQGTQVTVSS,high polyreactivity
16,QVQLVESGGGLVQAGGSLRLSCAASGFTLRVNAMGWYRQAPGKERELVAAISDSGTNTYYADSVKGRFTISRDNAKNTVYLQMNSLKPEDTAVYYCATAVYLVIFEYDYWGQGTQVTVSS,low polyreactivity
17,HVQLVESGGGLVQAGGSLRLSCAASGFTVYRYTLGWYRQAPGKERELVAAITWSGGNTYYADSVKGRFTISRDNAKNTVYLQMNSLKPEDTAVYYCAAYKPYSKSNYRGQGTQVTVSS,high polyreactivity
18,QVQLVESGGGLVQAGGSLRLSSASSGSIFYVYAMGWYRQAPGKERELVAAIYSGASTYYADSVKGRFTISRDNAKNSVYLQMNSLKPEDTAVYYCADERYFYEYDYWGQGTQVTVSS,low polyreactivity
19,QVQLVESGGGLVQAGGSLRLSCAASGRIFGKYTMGWYRQAPGKERELVAAISWGGGSTYYADSVKGRFTISRDNAKNTVYLQMNSLKPEDTAVYYCAADYYYYHTQEYDYWGQGTQVTVSS,high polyreactivity
20,QVQLVESGGGLVQAGGSLRLSCAATGSTFTAYAMAWYRQAPGKESELVAAIRRIGGDTYYADSVKGRFTISRDNAKNTVYLQMNSLKPEDSAVYYCAAFRWRSPQYWYHSMDHWGQGSQVTVSS,low polyreactivity
21,QVQLVESVGGLVQAGGSLRLSCAASGSILWLYAMGWYRQAPGKERELVAAISGSGRTNYADSEKGLFTISRDNAKNTVYLQMNSQKPEDTAVYYCARVHGTSESKYYYWGQGTQVTVSL,low polyreactivity
22,QVHLVESAGGLVQAGGSLSLSCAASAITLYFNAMGWYRQAPGKEREWVAAISWSGDSTYYADSVKGRFTISRDNAKNTVYLQMNSLKPEDTAVYYCAADRYTYYHYAWYEYWGQGTQVTVSS,low polyreactivity

row,Sequence,polyreactivity (PSR sort gate)
1,QVQLQVSGGDLVQAGGSLRLSCEASGTIYGLTSMGWYRQAPGKEREFVAAITDGGNTNYADSVKGRFTISRDNAKNTVYLQMISLKPEDTGVYYCAVLFSDDAYYAYWGQGTQVTVSS,low polyreactivity
2,QVQLVESGGGLVQAAGSLRLSCAASGSIFFYNAMGWYRQAPGIERELVAAITGGGGRTYYADSVKGRFTISRDNAKNTVYLQMNSLKPEDTAVYYCNKDWAQPYDYWGQGTQVTVSS,high polyreactivity
3,QVQLVESGGGLVQAGGSLRLSCAASGFTFERYAMGWYRQAPGKERELVAAIDWRGVNTYYADSVKGRFTISRDNAKNTVYLQMNSLKPEDTAVYYCAATRPATYASYDYWGQGTQLTVSS,high polyreactivity
4,QVQLVESGGGLVQAGGSLRLSCAASGRIFNLYAMGWYRQAPGKERELVAAISWGGGRTYYADSVKGRFTISRDNAKNTVYLQMNSLKPEDTAVYYCNAVYSPRYYVGGYDYWGQGTQVTVSS,high polyreactivity
5,QVQLVESGGVLVQAGGSLRLSCAASGFTFVAYTMGWYRQAPGKDRELVASIPNVGSTNYADSVKGRFTISRDKAMNTVYLLMNSLKPEDTAVYYCAAEYLGWHYLYLPFRDYDSWGQGTQVTVSS,low polyreactivity
6,QVQLVESGGGLVQAGGSLRLSCASSGSIFLYNAMGWYRQAPGKERELVAVINGRGGTYYADSVKGRFTISRDNAKNTVYLQMNSLKPEDTAVYYCATGFPPSAWYDSVRFEDRDSWGQGTQVTVSS,low polyreactivity
7,QVQLVESGVGLVQAGGSLRLSCAASGTTFSQYAMGGYRQAPGKERELVAAIDWSGGSTYYADSVKGRFTISRDNAKNTVYLQMNSLKPVDTAVYYCNTLRFRSFYLYGYWGQGTQVTVSS,high polyreactivity
8,QVQLVESGGGLVQAGGSLRLSCAASGSTYYYAMGWYRQAPGKEREFVAAISRDGSSTYYADSVKGRFTISRDNAKYTVYLQMNSLKPEDTAVYYCAASIIRFSTSADKLVTSRYYYWGQGTQVTVSS,high polyreactivity
9,QVQHVESGAGLVQAGGSLRLSCAASGSTFFRANAMGLDRQEPGKERELVAAITGSGGRTYYADSVKGRFTISRDNAKNTVYLQMNSLKPEDTAVYYCATHGVSRPYDYWGPGTQVTVSS,high polyreactivity
10,QVQLVESGGGLVQAGGSLRLSCAASGRTFYPYAMGWYRQAPGKEREFVAAIRWRGGSTRYADSVKGRFTISRDNAKNTVYLQMNSLKPEDTAVYYCAADLRLGLNYYYWGQGTQVTVSS,high polyreactivity
11,QVQLVESGGGLVQAGGTLRLSCAASGFTYKYYGMGWYRQAPGKERELVAAITSSGSTYYADSVKGRFTISRDNAKNTVYLQMNSLKPEDTAVYYCAAEGQRWQRWRYNYWGQGTQVTVSS,high polyreactivity
12,QVQLVESGGGLVQAGGSLRLSCAHSGFIFCNYAMGWYRHAPGKERELVAAITSGGTSTYYADSVKGRFTISRDNAKNTVYLQMNCLKPEDTAVYFCAAVTGLFSYWDYSAMYYWGQGTQVTVSS,high polyreactivity
13,QVQLVESGGGLVQAGGSLRLSCAASGLIFSPYAMGWYRQAPGKERELVAAITWSGGSTYYADSVKGRFTISRDNAKNTVYLQMNSLKPEDTAVYYCNAVTTRLALYDYWGQGTQVTVSS,high polyreactivity
14,QVQLVESGGGLVQAGGSLRLSCAASGFTFTKYDMGWYRQAPGKETELVAVITWSGGSTYYADSVKGRFTISRDNAKNTVYLQMNSLKPEDTAVYYCNAEAPRYTYGRMDYWGQGTQVTVSS,low polyreactivity
15,QVQLVESGGGLVQAGGSLRLSCAASGRIFPGYAMGWYRQAPGKERELVAGISNDASTNYADSVKGRFTISRDNAKNTVYLQMNSLKPEDTAVYYCAAEISYLSVPRYDDWGQGTQVTVSS,low polyreactivity
16,QVQLVESGGGLVQAGGSLRLSCAASGSIFYQYAMGWYRQAPGKERELVARIRGSTGTTYYADSVKGRFTISRDNAKNTVYLQMNSLKPEDTAVYYCNAARYQGRSRFDYWGQGTQVTVSS,high polyreactivity
17,QVQLVESGGGLVQAGGSLRLSCAASGIIFPTYAMGWYRQAPGKERELVAAISVSGGTTSYADSVKGRFTISRDNAKNTVYLQMNSLKPEDTAVYYCAARKYSYPVAAHYYWGQGTQVTVSS,high polyreactivity
18,QVQLVDSGGGLVQAGGSLRLSCAASGFTFQYYSMGWYRQATGKERELVADISSSGDSTNYADSVKGRFTISRDTAKNTVYLQMNSLKPEDTAVYYCAADYSQPNFEYYYWGQGTQVTVSS,low polyreactivity
19,QVQLVESGGGLVQAGGSLRLSCAASGRTFVVYAMGWYRQAPGKERELVAAISWSGGLTYYADSVKGRFTISRDNAKNTVYLQLNSVKPEDTAVYYCAAEVYLYKYVYYYWGQGTQVTVSS,high polyreactivity
20,QVQLVESGGGLVQAGGSLRLSCAASGRTFWVYAMGWYRQAPGKERELVAAIRRGGITNYADSVKGRFTISRDNAKNTVYLQMNSLKPEDTAVYSCATDNYGYLTRYYYWGQGTQVTVSS,low polyreactivity
21,QVQLVESGGGLVQAGGSLRLSCAASGFTFPWNVMGWYRQAPGKERELVAAITYDGGGTYADSVKGRFTISRDNAKNTVYLQMNSLKPEDTAVYYSNADLIYGEEYDYWGQGTQVTVSS,low polyreactivity
